The values below are quoted from earlier work in article PMC3137898.

For the data set, the target named is syntrophin PDZ (Mus musculus) (UniProt Q61234).

pKd: −log10 of the molar value.

neuronal nitric oxide synthase PDZ, sequence (P29476 14-102): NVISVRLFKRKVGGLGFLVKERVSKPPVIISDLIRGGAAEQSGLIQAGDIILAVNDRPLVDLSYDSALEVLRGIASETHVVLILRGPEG
syntrophin PDZ (Mus musculus), sequence (Q61234 78-167): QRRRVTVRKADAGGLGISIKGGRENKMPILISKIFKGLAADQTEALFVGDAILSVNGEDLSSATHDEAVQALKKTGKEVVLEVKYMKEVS

Take “neuronal nitric oxide synthase PDZ (from UniProt P29476)”: the pKd is 6.22.

What is called pKd is −log10 of the Kd, conventionally taken in molar units.
